In US11912755B2, “Endostatin fragments and variants for use in treating fibrosis” (iBio, Inc., priority 2015, dated 2024):

Experiments:
[1] = system: human primary lung fibroblasts; test: Western blot of FN, Col1α1 and α-SMA in primary lung fibroblasts; type: cell-based; settings: normal human lung fibroblasts; TGF-β 24 h, then 5 μg/ml for 48 h
Description: Primary Fibroblast Culture. Human primary lung and skin fibroblasts were cultured. The explanted lungs of normal organ donors, patients with SSc or IPF, and clinically involved skin of SSc patients, a morphea patient and healthy donors were used for primary fibroblast culture. Approximately 2-cm pieces of peripheral lung and skin were minced and fibroblasts were cultured in Dulbecco's modified Eagle's medium (DMEM; Mediatech, Herndon, Va.) supplemented with 10% FBS, penicillin, streptomycin, and anti-mycotic agent, as previously described (Feghali et al., Arthritis Rheum 1999; 42:1451-7). All the cells were used between passages 3-6.
Western Blot Analysis. Cellular lysates were obtained from cultured fibroblasts as previously described (Pilewski et al., Am J Pathol 2005; 166:399-407). Briefly, 2.0×10^5 primary fibroblasts were cultured in 35-mm wells in 0.5% FBS-containing medium supplemented with 10 ng/ml of human recombinant TGF-β or PBS as vehicle control for 24 h, […] In some experiments, endostatin peptides were used without TGF-β stimulation. Cellular lysates were analyzed by Western blot. Signals were detected following incubation with horseradish peroxidase-conjugated secondary antibody and chemiluminescence (Perkin Elmer Life Sciences, Inc., Boston, Mass.). The intensity of individual bands with expected molecular sizes was semi-quantitatively analyzed using the image/J® software available at on the Internet (/rsb.info.nih.gov/ij/index.html), and normalized to individual GAPDH intensity.

[2] = system: TGF-β-induced dermal fibrosis in mouse skin; test: In vivo TGF-β-induced dermal fibrosis in mouse skin; settings: 10 μg/ml intradermal with TGF-β 10 ng/ml; one week
Description: In Vivo Mouse Experiments. CB57BL6/J male mice were purchased from The Jackson Laboratory (Bar Harbor, ME). Human rE (10 μg/ml) or Endostatin peptides (10 μg/ml) in combination with TGF-β (10 ng/ml), or TGF-β alone were injected intradermally on the back of mice in a total volume of 100 μl 1×PBS. Mice were injected in two different skin sites and sacrificed one week post-injection. Skin surrounding the injection site was harvested and fixed in 10% formalin prior to embedding in paraffin.
Measurement of Skin Dermal Thickness. Six μm sections of paraffin-embedded human and mouse skin tissues were stained with hematoxylin and eosin (H&E). In some experiments, sections were stained with Masson trichrome which identifies collagens. Images were taken on a Nikon Eclipse 800 microscope. The thickness of the dermis was measured in 6 random fields of each section using the image/J® software. Data are shown in arbitrary units.
E4, a peptide representing the carboxy terminus of human endostatin, can attenuate fibrosis triggered by multiple fibrogenic factors. The anti-fibrotic effects of E4 can be detected whether administered concomitantly with or following the fibrogenic trigger. The efficacy of E4 was confirmed in […] pre-clinical models of fibrosis: a) bleomycin-induced dermal fibrosis in vivo in mouse skin, b) TGF-β induced dermal fibrosis in mouse skin, and c) bleomycin-induced pulmonary fibrosis. E4 peptide or a control peptide (E1; representing the amino terminal region of endostatin) were administered at the same time as TGF-β or bleomycin or 3-4 days following TGF-β or bleomycin. Mice were sacrificed one and two weeks after TGF-β-initiation of dermal fibrosis, and two and three weeks after bleomycin-induced pulmonary fibrosis. Two different modes of administration of the E4 peptide were also tested. It was confirmed that intraperitoneal and intratracheal administration was effective. The amount of E4 that was administered was 10 μg/ml in a total volume of 100 μl for skin and IP injections and 50 μl for IT administration.
For these studies, fibrosis was assessed by measurement of dermal thickness on H&E skin sections (skin), assessment of collagen levels by Masson Trichrome staining (skin and lung), and measurement of collagen levels by Sircol assay (lung). Furthermore, to confirm the mechanism by which E4 exerts its anti-fibrotic effects, the production of extra-cellular matrix (ECM) components, the levels of enzymes that promote matrix stabilization and thus accumulation and levels of those that degrade ECM components, and levels of transcription factors downstream of the pro-fibrotic triggers were evaluated. Results were assessed using the unpaired t test and the 3-way ANOVA (for the ID1 data).

[3] = Solubility of Ig Fc fusions to E3 in plant lysates; type: physicochemical; settings: plant lysate, non-denaturing (normal) grind buffer
Description: For IgG Fc expression, clarified plant lysates were run on a Western blot (Genway chicken E3 antibody). Fusions included E3 (C67A) linked to either the N-terminus of the hinge+Fc domains of IgG2, IgG3, or IgG4, or to the C-terminus of the hinge +Fc domain of IgG1. […] The E3-IgG1 fusion expressed well. The non-reducing samples all appeared to form large structures, although perhaps not as large as the END-55 (iBioCFB03) BMW multimers (FIG. 24).
For IgA/M expression, clarified plant lysates were ground in either denaturing (total) or non-denaturing buffer (soluble) and run on a Western blot (Genway chicken E3 antibody). Fusions contained E3 (C67A) linked to the N-terminus of the hinge+Fc domains of IgA1, IgA2, or IgM. The IgA1 and IgA2 fusions were insoluble in normal grind buffer. The IgM fusion had very low expression. J-chain co-expression had no obvious effect.

[4] = system: bleomycin-induced pulmonary fibrosis; test: Bleomycin mouse model of pulmonary fibrosis, plant-made E3 variants oral or IV; type: in vivo; settings: oral treatment
Description: Peptides were expressed in plants using the IBIOLAUNCH™ gene expression platform. C57BL/6 mice were given bleomycin intratracheally in conjunction with END-55 (also referred to herein as E3-Fc (C67A) and CFB03) intravenous (IV) administration, or followed by IV administration of END-55 eight days after bleomycin. The mice were sacrificed at day 12 and lung samples were taken for both hematoxylin and eosin (H&E) staining and hydroxyproline assay.
Pulmonary fibrosis was induced in mice using bleomycin. Animals were treated orally with E3 variants or phosphate buffered saline (PBS). Lung histology was examined, showing that orally delivered E3 variants (E3-6His-KDEL (SEQ ID NO:19) and Expanded E3-6His-KDEL(SEQ ID NO:19)) prevented bleomycin-induced pulmonary fibrosis.
For the experiments shown in FIGS. 21 and 22, pulmonary fibrosis was again induced in mice using bleomycin. […] Hydroxyproline content was measured in the lung.
To evaluate tissue fibrosis/collagen deposition, a hydroxyproline quantification assay was performed. […] Aliquots were transferred to 96-well plates, and absorbance was measured at 570 nm. Collagen content was calculated by comparison with a standard curve generated with cis-4 hydroxy-L-proline (Sigma-Aldrich), using the conversion factor of 1 μg hydroxyproline corresponding to 6.94 μg. […]

E1: synthetic peptide, amino acids 1-45 of SEQ ID NO: 2 (human endostatin) (HSHRDFQPVLHLVALNSPLSGGMRGIRGADFQCFQQARAVGLAGT; listed as Homo sapiens)
FN and Col1α1 levels [1]: no effect | TGF-β-induced dermal fibrosis (dermal thickness) [2]: did not alter

IgG1_Fc-E3_C67A: SEQ ID NO: 29, C-terminal fusion of E3 C67A to IgG1 Fc
solubility [3]: soluble

E2: synthetic peptide, amino acids 71-115 of SEQ ID NO: 2 (IVNLKDELLFPSWEALFSGSEGPLKPGARIFSFNGKDVLTHPTWP; listed as Homo sapiens)
TGF-β-induced dermal fibrosis (dermal thickness) [2]: significantly reduced

B1: E3-6His-KDEL: SEQ ID NO:15; secretory leader peptide, E3, tagged with 6X His and KDEL sequence; plant-made (protein)
chain: MGKMASLFATFLVVLVSLSLASESSASYCETWRTEAPSATGQASSLLGGRLLGQSAASCHHAYIVLCIENSFMTHHHHHHKDEL
modifications: amino acid sequence including a secretory sequence, a portion of human endostatin, and a peptide tag
notes: plant-made
bleomycin-induced pulmonary fibrosis, lung histology [4]: prevented

B2: Expanded E3-6His-KDEL: SEQ ID NO:17; E3 extended by 17 amino acids from Collagen XVIII, S→Y, C67A, ASK, 6X His KDEL (protein)
chain: MGKMASLFATFLVVLVSLSLASESSAQKSVWHGSDPNGRRLTESYCETWRTEAPSATGQAYSLLGGRLLGQSAASCHHAYIVLAIENSFMTASKHHHHHHKDEL
modifications: amino acid sequence including a secretory sequence, a portion of collagen XVIII, a portion of human endostatin having a C67A mutation, and a peptide tag
notes: E3 extended by 17 amino acids from Collagen XVIII, S→Y, C67A, ASK, 6X His KDEL
bleomycin-induced pulmonary fibrosis, lung histology [4]: prevented

B3: E3_C67A-Fc_IgG3: SEQ ID NO: 23 (protein)
chain: MGKMASLFATFLVVLVSLSLASESSASYCETWRTEAPSATGQASSLLGGRLLGQSAASCHHAYIVLAIENSFMTELKTPLGDTTHTCPRCPEPKSCDTPPPCPRCPEPKSCDTPPPCPRCPEPKSCDTPPPCPRCPAPELLGGPSVFLFPPKPKDTLMISRTPEVTCVVVDVSHEDPEVQFKWYVDGVEVHNAKTKPREEQYNSTFRVVSVLTVLHQDWLNGKEYKCKVSNKALPAPIEKTISKTKGQPREPQVYTLPPSREEMTKNQVSLTCLVKGFYPSDIAVEWESSGQPENNYNTTPPMLDSDGSFFLYSKLTVDKSRWQQGNIFSCSVMHEALHNRFTQKSLSLSPGK
modifications: E3_C67A-Fc_IgG3 fusion
solubility [3]: soluble

B4: E3_C67A-Fc_IgA1: SEQ ID NO: 25 (protein)
chain: MGKMASLFATFLVVLVSLSLASESSASYCETWRTEAPSATGQASSLLGGRLLGQSAASCHHAYIVLAIENSFMTVPCPVPSTPPTPSPSTPPTPSPSCCHPRLSLHRPALEDLLLGSEANLTCTLTGLRDASGVTFTWTPSSGKSAVQGPPERDLCGCYSVSSVLPGCAEPWNHGKTFTCTAAYPESKTPLTATLSKSGNTFRPEVHLLPPPSEELALNELVTLTCLARGFSPKDVLVRWLQGSQELPREKYLTWASRQEPSQGTTTFAVTSILRVAAEDWKKGDTFSCMVGHEALPLAFTQKTIDRLAGKPTHVNVSVVMAEVDGTCY
modifications: E3_C67A-Fc_IgA1 fusion
solubility [3]: insoluble

B5: E3_C67A-Fc_IgA2: SEQ ID NO: 26 (protein)
chain: MGKMASLFATFLVVLVSLSLASESSASYCETWRTEAPSATGQASSLLGGRLLGQSAASCHHAYIVLAIENSFMTVPCPVPPPPPCCHPRLSLHRPALEDLLLGSEANLTCTLTGLRDASGATFTWTPSSGKSAVQGPPERDLCGCYSVSSVLPGCAQPWNHGETFTCTAAHPELKTPLTANITKSGNTFRPEVHLLPPPSEELALNELVTLTCLARGFSPKDVLVRWLQGSQELPREKYLTWASRQEPSQGTTTFAVTSILRVAAEDWKKGDTFSCMVGHEALPLAFTQKTIDRMAGKPTHVNVSVVMAEVDGTCY
modifications: E3_C67A-Fc_IgA2 fusion
solubility [3]: insoluble
